Experimental data taken from publication PMC6054995.

Molecular target: Marchantia polymorpha 3-phosphoglycerate dehydrogenase, recombinant, without the transit peptide (Marchantia polymorpha)
Assay: SEC; HiPrep 16/60 Sephacryl S-300 HR, 0.5 mL/min, 100 mM sodium phosphate buffer (pH 9.0); mass estimated from a standard curve of thyroglobulin, apoferritin, beta-amylase, albumin and carbonic anhydrase

## Marchantia polymorpha 3-phosphoglycerate dehydrogenase, recombinant, without the transit peptide (enzyme)
  stoichiometry N: 4
